Assay: soluble on expression in E. coli; label from the status in PepcDB or PDB records

Sequence	soluble on expression in E. coli
MSADYSSEKFKATHLFDEILWHFRSNLSLKTNRRGLATAENSFSGKEAVDFLMIEMPRIIPNNVPERDKMQKFLEFMMDMNVISEAFPKKVKQRRPFSESRIYLFMKTLDELKHPKPRSRRSASFSGARKSAKVAQPASPAATMHRPPKARLPRRLSRSNGNIDKAGIDNSSGGVENHGFDDHKDDEIPKKQRTPKILNRSLESICTEEYTEKREVSEMKEKVYDWLPFFKSRRNHTKVNQPTRRSASLDRNHCVLEQEKAEAALRSQKVTTPPIREAPKDVVFMHPQGPLPAVPSRYQNHRTSIAGSNPALLSRGRMYESIMRRSSVVPVADSVQANNECSFWKTELLGRLEQIYDRTLPCEWASKVDGYDIQWNMIEIDHADGIVKSRCQGLQPDYPQTVIQFMDYLVRYPFVTHKKMDTGLEYNVNRIFITLVNRLEDLNAPLQFDECSLIVNLLCKIDSFAAMLDNGPARRWSKVMISSSASSIEEAGLMVDGFSRDLPACGIRASKYRRRALSPFDNRVNLEIQDEKSYEIREQWLIEAIQLVLLSLPTSRRRKLHKFVTFIQSIETNAVFDLADPSNGSSNNREAAIIGLWTGVCSKCRKQQGMLITAVLLANFQSLFAVPVEFIEQVKRLECEEKDRYSGPRYAKITRSRNDWQPPVPDKPQASPAVFKKPLREVACEKTKKGLFTRLLRK	not soluble
SLSPAPTTMDFTPAPLEDTSSRPQFCKWPCECPPSPPRCPLGVSLITDGCECCKMCAQQLGDNCTEAAICDPHRGLYCDYSGDRPRYAIGVCAQVVGVGCVLDGVRYNNGQSFQPNCKYNCTCIDGAVGCTPLCLRVRPPRLWCPHPRRVSIPGHCCEQWVCEDDAKRPRKTAPRDTGAFDAVGEG	soluble
PKWQAVRAEYQRQRDPLHQFASQQNPEAQLQALQDKIRANPQNSEQWALLGEYYLWQNDYSNSLLAYRQALQLRGENAELYAALATVLYYQASQHMTAQTRAMIDKALALDSNEITALMLLASDAFMQANYAQAIELWQKVMDLNSPRINRTQLVESINMAKLLQRRSDLEHHHHHH	soluble
MSLHELKAAAFPQTTEKISPNWESGINVDLAISTRQYHMQQLFYRYGENNSLSVEGFRKLLQNIGIDKIKRIHIHHDHDHHSDHEHHSDHERHSDHEHHSDHEHHSDHNHAASGKNKRKALCPDHDSDSSGKDPRNSQGKGAHRPEHASGRRNVKDSVSASEVTSTVYNTVSEGTHFLETIETPRPGKLFPKDVSSSTPPSVTSKSRVSRLAGRKTNESVSEPRKGFMYSRNTNENPQECFNASKLLTSHGMGIQVPLNATEFNYLCPAIINQIDARSCLIHTSEKEGHHHHHH	not soluble
MRTIERTTIFKRDFKREMKGQHRHLLDTDLRKVIAALANDQPLEIRYRDHALTGNWSNYRDCHIRPDLVLIYRLIGQDRLVLVRLGSHSQLDL	not soluble
MSLKSLEGSWCLVLGASSGIGRAIALGLAREGVHVAGVHFDTAARAEEVEALVEEIRSLGVEARFFNTNAASKATRAELVPQLAELTGANGGIRILVHSLAFGTLVPFTPREGWDRPISVRQLEMTLDVMAHSLVYWTQDLLAAGLLRSGSKVYAMTSAGTSQHLPSYGAVSAAKSALESHVRQLAAELATSGIAVNALRAGTTVTPALQRIPEHAGYIERAAENNPHGRLTRPDDVADAVALLSRTESSWLTGNTIGIDGGELHEGHHHHHH	soluble
MSTLYHTCDKIEQRIIWIDCEMTGLDVEKQTLCEIALIVTDSELNTIATGPDIVIHQPKEVLDNMEEWPRNTFHENGLMEKIIASKYSMADAENEVIDFLKLHALPGKSPIAGNSIYMDRLFIKKYMPKLDKFAHYRCIDVSTIKGLVQRWYPDYKHPKKQCTHRAFDDIMESIAELKNYRESIFVKSTASSF	not soluble
MSLMMFRYANFQIIKKEQELVISRGIIEKHQVTIPLRKIQAIKIKENIIRQLFGFVTVSIVSAGGGDREKEEGALTILFPMIHKKKLPHMLRTFTPEYTLEENCRRLPRREGHHHHHH	not soluble
MEAVKTFNSELYSLNDYKPPISKAKMTQITKAAIKAIKFYKHVVQSVEKFIQKCKPEYKVPGLYVIDSIVRQSRHQFGQEKDVFAPRFSNNIISTFQNLYRCPGDDKSKIVRVLNLWQKNNVFKSEIIQPLLDMAAALEHHHHHH	soluble
MGSDKIHHHHHHMNTKKESALSFPSAGIESFGERLKELMGDESLRAFANAIDTSEGGVRKWFTQSTMPSFDKMVRIARRYNVNLEWLCTGEGPKFPGETAAYESVICKTEEFSEEYALIDGYHTQVSTGHGAQWDNERVRRKLAFRSKWLRYRGLQPENLRVVFAKGDSMEPTIHSGDSILVDITDANLSDGSIFVLRIGDDLFAKRVQVHIDGSITIISDNKEYREQRVPVAELGLLSVVGKVVWIGKDVK	not soluble
SAKTDKLAQFLDSGIYESDEFNWFFLDTVRITNRSYTRFKVSPSAYYSRFFNSKQLNQHSSESNPKKRKRKQKNSSFHLPSVGEQASNLRHQEARLFLSKAHESFLKEIELLSLTKGLSDDNDDDDSSLLNKCCDDEVSFIELGGVWQAPFYEITLSFNLHCDNEGESCNEQRVFQVFNNLVVNEIGEEVEAEFSNRRYIMPRNSCFYMSDLHHIRNLVPEKISHYHIGRRCNSLIDVIYAAKSEEGYNLIVIDPPWENASAHQKSKYPTLPNQYFLSLPIKQLAHAEGALVALWVTNREKLLSFVEKELFPAWGIKYVATMYWLKVKPDGTLICDLDLVHHKPYEYLLLGYHFTELAGSEKRSDFKLLDKNQIIMSIPGDFSRKPPIGDILLKHTPGSQPARCLELFAREMAAGWTSWGNEPLHFQDSRYFLKV	soluble
MGHHHHHHSHKPGLSTSIPLRMSSYTFKRPVTRITPHPGNEVRYHQWEESLEKPQQVCWQRRLQGLQAYSSAGELSSTLDLANTLQKLVPSYTGGSLLEDLASGLEHSCPMPHLACSSDAVEIIPAEGVGISQLLCKQFLVTEEDIRKQEGKVKTVRERLAIALIADGLANEAEKVRDQEGCPEKR	not soluble
PTSSTTAALVMGDALAVALLEARGFTAEDFALSHPGGALGRKLLLRVNDIMHTGDEIPHVGLQATLRDALLEITRKNLGMTAICDDDMNIIGIFTDGDLRRVFDTGVDMRDASIADVMTRGGIRIRPGTLAVDALNLMQSRHITCVLVADGDHLLGVVHMHDLLRA	soluble
TSGTLYLVGTPIGNLDDMTFRAIATLKNVDLIAAEDTRHTGKLLKHFQIATPQISYHDHNRHQRQAQLLEKLRSGLNIALVSDAGLPGISDPGFELVASAIDTEITVVPIPGV	not soluble
MAHHHHHHMPCEGCGLSEAAMQCPTCKKLDMPPSYFCSQACFKEHWADHKLKHTQSALPTIPTMTEAAMNAFNFTGSLRPGRITPRRAVPSHIPRPDYANRADGLSPAEEKDRGAKVRVYNLQSLHDDSKETADIQRVKKVCRLSREVLDIATAAVRPGVTTDEIDRIVHEATIERDMYPSPLNYYNFPKSVCTSVNEVICHGIPDSRGLEEGDIVNIDVSSYLNGFHGDLNETVFVGKPDADSVRLVHAAYESLYAGIKVVKPEALYKHVGDAIEACAVQYGCSVVRAYTGHGVGHLFHTAPTVCHYANNKSLGMMRPGHVFTIEPMINLGTWQDVTWPDNWTSTTRDGKRSAQFEHTMVVTNDGAELFTDWTDGIPTYQKQLEGWNIPLPSPSNGVAH	not soluble
MSLLLPANEQRPVVDIFVEGRRISAREGETIAAALLNAGIVPFRRTPVSGQPRAPLCLMGVCFECLVEVDGAQNVQSCMVRVNAGMQVGLPTGARRAGDGEGHHHHHH	not soluble
GSARPKLRVVTLVEHPFVFTRESDEDGQCPAGQLCLDPGTNDSARLDALFAALVNGSVPRTLRRCCYGYCIDLLERLAEDLAFDFELYIVGDGKYGALRDGRWTGLVGDLLAGRAHMAVTSFSINSARSQVVDFTSPFFSTSLGIMVRTRGTELSGIHDPKLHHPSQGFRFGTVWESSAEAYIKASFPEMHAHMRRHSAPTTPHGVAMLTSDPPKLNAFIMDKSLLDYEVSIDADCKLLTVGKPFAIEGYGIGLPQNSPLTSNLSEFISRYKSSGFIDLLHDKWYKMVPCGK	soluble
GPGSMIEADVIRLNMEVEAAAARNADLSREVARLREELANSGLHNMDRTLVITEGTQTDSGMLREVALDLDDILFEVSELLFRLYPASSLDLSVRRDAQSSQLNDLSQRCLREVRSLKAAWEMKLDGYNQFISNIQRSQVDYHRSLDSKECQLRRKQQECDVLVGENARLSTLCSELESQLKTTQEAATRAEEQVGRLLQQTADLEAERRRLLDREAAMANTLVALRAECAFNPWSSLVGVKEAATTIESNGQLPSVREQAVAVTKAHIKPPGAVSASDVAMAFQGLDLDGQLPHMCVEPESVVDYYCKVKHSSPTRSLM	soluble
MGSDKIHHHHHHMITRIEAYKYRCFNTLDLALEQQHVFAGSNGSGKTTLLDIPALFGDLLNMSDINDAFFKPTNGRERARAESAKEVVHQLRGEYFILALEVSLPPSIIEELLRGASDAWQSKFQKSELRPDTARYEISFRINQDKFQVTEEHLTLFPNNELRPEHGMGLIGVDDFRRSAPWFKVLSRSLGTKVKYQAEYQAGKSSILEFGLRDNQLALAALPADHDLYPAALWLQEFLIQGSHCYEPQWPAMRLAASPRDKHAFKADGSSLPWQVHALQQSDPEGLNEWLELVQMALPSIAKIVAKQRIDDSFCYLEVTYSNGMVVPSSGLSHGTLHILALTIIPYLQNAPKIITLEEPENGIHPKAIDAVLEALKLTSDTQLWLSTHSPVVLANTEVEQIITMRFNQDGATEVLKGHEHPRLKTWKGEVDLGTLFAAGVLE	not soluble
MAHHHHHHMSTNSAKILSRVREAMKLHSINALIVPSSDPHNSEYVMDSYKCRGFLTNFNGSAGTCLITMEEAYLWTDGRYWLEAGHCLYPEWQLMRDGHPGVPSLEDFVRLNLQPDLLVGMNDNLATVAEWERRRKAINLVPIPEIVRPLMPQNSDAKAEMLSIRPEQFCGQTREEKVMALVEELKGQKCEAMILSALDEVAWLTNLRGSDVPYNPVFYSYALVRSAPDPTVALFVDSAKVSSPVEAELTQSGRSVVSVSLHPYEALEDYVRALPAGTAFLVDEYQTSQRLYSLLESCKMKVNRVKCGPAQRLKAVKNAVEIEGFRRCHVRDGVALTRYLAWLHDMIVVKGDTTITECSGADVVEGFRREQEHFVQLSFPTISSVGPNGAVVHYTPPKEGSATIVPDQLYLVDSGAQYLDGTTDVTRTVCFNPPSDEERQAYTLVLKGHLALHNAVWPTGTTGHRLDALARVHLWRYGLDYAHGTGHGVGSFLNVHEGPQGIGYRPTPTEATLAAGMIMSNEPGYYKAGKYGIRIENLEVIVRAPTRHSQEGFLTFEALTMVPLCRDLIDVSMLTADEVRLVNDYHRTVRDALTPHLRRVNDSCALAYVERHTAELCALEGGC	soluble
MGSDKIHHHHHHMDAIDLKRLSDFVRHRQNEDGGFAFCKPLPSTLAETFYAVSILTSIGEDVPRREKVVEFLKSRIQTEINSLFYTLHSLNLLGEDLPDYSSFLLKRLEGLKAERKYLLSDGGVTATYTFLQPNALRDAYMISTLLHLYNRDVPEETKMLVRRYRRETEFGVGYGVKKPNLEETFYASYILRDKAVISFVKSFESNGGFAKQPGGYPPYLEDTYYATSTLSLLSQRYSNPRTAEFIASLQNANGGFRRSIHGGISTLEDSYYAVEVLRRLEFR	not soluble
MSLFHPEISGEWGAVKGDNIELLLNVDLSNPSPAPILLETIKVKLAGVKIGETKRANIAIFSRKVTIDSIINLDNLTTALINHIKEKEESTVSVYAKLELFDVIPVEYSRDVNFQTDLLSYLKNLRVEPKIYSIGGIPLKTPGIEGMDAKWGRVSNDSIEIIGWLKLYNPNSFPIPVTGLSADLYMNSVNIGKGVILKGTVLQPNSRGEVKVKLVLDVDNFKEAFKTHITNGERSTIRADINLVVKVGGVEYEIPIKDIETTFETDILGSIKFGEGHHHHHH	soluble
